Source: paper PMC2702006
Each block holds one substance with its values, some of them ahead of it.

Key:
human Hsp90β (human) = human Hsp90β (human) (UniProt P08238); assay: cross-linking
yeast Hsp90 L18R (yeast) = yeast Hsp90 L18R (yeast) (UniProt P02829)
yeast Hsp90 L15A (yeast) = yeast Hsp90 L15A (yeast) (UniProt P02829)
yeast Hsp90 L18A (yeast) = yeast Hsp90 L18A (yeast) (UniProt P02829)

human Hsp90β, P08238 1-724 (natural protein; other documents disagree on this pair), sequence (P08238 whole entry): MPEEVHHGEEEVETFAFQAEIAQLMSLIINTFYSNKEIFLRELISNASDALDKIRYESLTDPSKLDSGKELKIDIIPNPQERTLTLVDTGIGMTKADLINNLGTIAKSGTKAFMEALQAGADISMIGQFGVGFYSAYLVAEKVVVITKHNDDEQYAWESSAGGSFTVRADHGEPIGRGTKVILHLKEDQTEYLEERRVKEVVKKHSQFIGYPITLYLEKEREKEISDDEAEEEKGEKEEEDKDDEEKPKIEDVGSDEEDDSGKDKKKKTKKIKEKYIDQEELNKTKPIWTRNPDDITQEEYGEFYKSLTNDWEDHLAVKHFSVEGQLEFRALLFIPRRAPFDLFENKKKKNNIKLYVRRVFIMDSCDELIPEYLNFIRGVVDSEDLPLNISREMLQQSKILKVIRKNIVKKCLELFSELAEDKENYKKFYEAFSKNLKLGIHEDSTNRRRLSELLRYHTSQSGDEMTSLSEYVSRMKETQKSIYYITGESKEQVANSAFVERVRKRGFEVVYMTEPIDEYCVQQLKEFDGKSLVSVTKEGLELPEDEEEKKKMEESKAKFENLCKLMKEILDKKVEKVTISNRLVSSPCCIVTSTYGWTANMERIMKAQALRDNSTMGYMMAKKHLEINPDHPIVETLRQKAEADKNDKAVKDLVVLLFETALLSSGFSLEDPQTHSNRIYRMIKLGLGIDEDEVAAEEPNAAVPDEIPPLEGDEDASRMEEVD

- stoichiometry N (human Hsp90β (human)): 2
Substance: human Hsp90β, P08238 1-724 (natural protein; other documents disagree on this pair)

- ATPase activity relative to wild-type yeast Hsp90 (yeast Hsp90 L18R (yeast)): 42
Substance: yeast Hsp90 L18R (from UniProt P02829 1-709) (natural protein)

- ATPase activity relative to wild-type yeast Hsp90 (yeast Hsp90 L15A (yeast)): 157
Substance: yeast Hsp90 L15A (from UniProt P02829 1-709) (natural protein)

- ATPase activity relative to wild-type yeast Hsp90 (yeast Hsp90 L18A (yeast)): 103
Substance: yeast Hsp90 L18A (from UniProt P02829 1-709) (natural protein)
